{"source": "patent US20140056960A1", "about": "“Methods for Improving Fracture Healing and Bone Formation” (Imperial Innovations Limited, priority 2010, published 2014)", "molecules": {"B1": {"name": "S100A8: alarmin; rhS100A8 added to human PBMCs (protein, UniProt P05109 1-93, looked up)", "Protein S100-A8": "MLTELEKALNSIIDVYHKYSLIKGNFHAVYRDDLKKLLETECPQYIRKKGADVWFKELDINTDGAVNFQEFLILVIKMGVAAHKKSHEESHKE"}}, "key": {"[1]": {"system": "muscle derived stromal cells (MDSCs)", "assay": "osteogenic activity of supernatant from stimulated PBMCs: alkaline phosphatase in MDSCs over 7 d", "type": "cell-based, human", "settings": "S100 A8 at indicated doses (μg/ml) or LPS 10 ng/ml; MDSCs 7 d", "experimental": "FIG. 15. Supernatant from PBMCs stimulated with S100A8 but not LPS is osteogenic. PBMCs at 1*10^5/ml were stimulated with S100 A8 at indicated doses (μg/ml), or LPS at 10 ng/ml. The supernatants were harvested and filter-sterilised through a 0.2 μm filter. MDSCs were cultured in this S100 A8-stimulated supernatant over 7 d and alkaline phosphatase levels quantified.\nFIG. 16. Osteogenic activity of supernatant from human monocytes exposed to varying doses of LPS."}, "PBMCs [2]": {"system": "PBMCs", "assay": "IL-6 and IL-1β production by PBMCs stimulated with S100 A8 (ELISA)", "type": "cell-based, human", "settings": "S100 A8 0.5 μg/ml with antibody to TLR4, TLR2 or sRAGE, 14 hours", "experimental": "FIG. 13. […] PBMCs at 1*10^5/ml were incubated in 10% FCS with S100 A8 0.5 μg/ml with the addition of either antibody to TLR4, TLR2 or isotype controls, or sRAGE over 14 hours. IL-6 (A) and […] (B) levels were determined by ELISA."}, "PBMCs [3]": {"system": "PBMCs", "assay": "TNF-α production by PBMCs (ELISA, 14 hours)", "type": "cell-based, human", "settings": "PBMCs 1*10^5/ml, 10% FCS, alarmin at indicated doses", "experimental": "FIG. 10. […] (A) PBMCs at 1*10^5/ml were incubated in 10% fetal calf serum (FCS) with S100 A8 at indicated doses. […] (B) PBMCs at 1*10^5/ml were incubated in 10% FCS with S100 A8 at 0.5 μg/ml with the addition of either antibody to TLR4, TLR2 or isotype controls (not shown), or sRAGE over 14 hours. TNF-α levels were determined by ELISA.\nFIG. 12. […] PBMCs at 1*10^5/ml were incubated in 10% FCS with S100 A8, S100 A9 or S100 A12 at the indicated doses over 14 hours. TNF-α levels were determined by ELISA.\nFIG. 17. […] PBMCs at 1*10^5/ml were incubated in 10% FCS with HMGB1 or LPS at the indicated doses over 14 hours; TNF-α levels were determined by ELISA."}, "tibial fracture": {"system": "tibial fracture", "assay": "murine tibial fracture model: callus mineralization (microCT) and histology after local administration at fracture site", "type": "in vivo, mouse", "settings": "exogenous alarmin at fracture site days 0 and 1 (rmHMGB1 20 μL at 50 ng/ml); day 28 microCT", "experimental": "Percentage callus mineralization was determined from the fracture site to 1 mm proximally (mean+/−SEM). FIG. 5. Dose response of exogenous TNF-α in vivo. 20 μL of PBS with rhTNF-α at the corresponding dose was injected at the fracture site at days 0 and 1 in C57BI/6 mice. At day 28, mice were harvested and limbs scanned by microCT in a blinded fashion. Percentage callus mineralization was determined from the fracture site to 1 mm proximally (threshold density of 350 mg/cm^3). * p<0.05, ** p<0.01. FIG. 7A. […] Percentage callus mineralization was determined from the fracture site to 1 mm proximally (mean+/−SEM). FIG. 18. […] C57BI6 mice were subjected to fracture model with addition of 20 μL of rmHMGB1 at 50 ng/ml at the fracture site at days 0 and 1 compared to controls. Addition of exogenous S100A8 or S100A9 or S100A8/9 had no effect, possibly because the fracture environment may already contain optimal amounts of S100 A8 or A9 proteins. All mice were harvested at day 28 and limbs scanned by microCT in a blinded fashion. Percentage callus mineralization was determined from the fracture site to 1 mm proximally (mean+/−SEM). […] Inflammation plays a vital role in early fracture repair^11,12. In murine models, TNF-α, IL-1 and IL-6 are expressed at the fracture site within 24 hours of injury^13,14. Biphasic expression of TNF-α and IL-1β appears to be linked to the initiation of fracture repair and later to endochondral maturation^14,15. In our murine model, callus mineralization at day 28 was enhanced when TNF-α, at a concentration of 50 ng/kg was injected locally following injury (day 0) and 24 hours later."}}, "note": "Entries after “also recorded” stand apart in the source; their conditions may differ."}
{"molecule": "B1", "values": [{"measurement": "osteogenic activity of stimulated PBMC supernatant (alkaline phosphatase)", "setting": "[1]", "result": "led to osteogenesis; also recorded: osteogenic"}, {"measurement": "receptor dependence of IL-6 and IL-1β production", "setting": "PBMCs [2]", "result": "produced by monocytes via TLR4 and also RAGE, but not TLR2"}, {"measurement": "TNF-α production by PBMCs", "setting": "PBMCs [3]; listed as S100 A8", "result": "stimulates monocytes to produce TNF-α in a dose dependent manner; also recorded: dose-dependent increase in TNF-α production"}, {"measurement": "TNF-α production by PBMCs", "setting": "PBMCs [3]; listed as rhS100A8", "result": "resulted in production of TNF-α"}, {"measurement": "fracture healing / percentage callus mineralization", "setting": "tibial fracture", "result": "no effect"}]}
